Test system: Escherichia coli TOP10
Experiment: shrunken log2 fold change of peptide-encoding DNA abundance (4.5 h post-induction vs induction); higher = less antimicrobial activity (less host growth inhibition)
Conditions: time post-induction: 4.5 h; library: site-saturation at positions 5, 18, 19, 20
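Note: peptides expressed intracellularly from a pBAD plasmid library in pooled LB shake-flask culture, induced with 0.3% L-arabinose, DNA abundance read by NGS, three biological replicates, DESeq2 with apeglm shrinkage.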

Sequence	shrunken log2 fold change
RRIRWRPPRLPRPRPRPMIGPRP	0.384
RRIRMRPPRLPRPRPRPTRKPRP	1.6
RRIRYRPPRLPRPRPRPHTNPRP	-0.661
RRIRMRPPRLPRPRPRPETNPRP	2.42
RRIRMRPPRLPRPRPRPFTKPRP	-0.319
RRIRFRPPRLPRPRPRPAESPRP	-0.117
RRIRERPPRLPRPRPRPTVEPRP	-0.0686
RRIRKRPPRLPRPRPRPEIFPRP	0.368
RRIRFRPPRLPRPRPRPFFGPRP	0.0944
RRIRKRPPRLPRPRPRPLFCPRP	0.177
RRIRGRPPRLPRPRPRPMTEPRP	0.0819
RRIRSRPPRLPRPRPRPQPIPRP	0.000168
RRIRSRPPRLPRPRPRPVMNPRP	0.0346
RRIRWRPPRLPRPRPRPCLAPRP	0.329
RRIRQRPPRLPRPRPRPATAPRP	0.115
RRIRLRPPRLPRPRPRPDWEPRP	0.0332
RRIRGRPPRLPRPRPRPSLVPRP	0.473
RRIRCRPPRLPRPRPRPIDPPRP	-0.18
RRIRLRPPRLPRPRPRPWRMPRP	0.0332
RRIRERPPRLPRPRPRPQCTPRP	-0.012
RRIRVRPPRLPRPRPRPVHGPRP	-0.0285
RRIRSRPPRLPRPRPRPMSKPRP	-0.032
RRIRCRPPRLPRPRPRPETGPRP	-0.0271
RRIRNRPPRLPRPRPRPEPLPRP	0.00741
RRIRSRPPRLPRPRPRPTSCPRP	-0.0946

Sequence	shrunken log2 fold change
RRIRWRPPRLPRPRPRPPKHPRP	0.272
RRIRFRPPRLPRPRPRPPTAPRP	0.429
RRIRCRPPRLPRPRPRPEWKPRP	0.0169
RRIRCRPPRLPRPRPRPWINPRP	0.102
RRIRMRPPRLPRPRPRPPVAPRP	1.3
RRIRWRPPRLPRPRPRPDVSPRP	0.265
RRIRDRPPRLPRPRPRPATMPRP	0.168
RRIRPRPPRLPRPRPRPLDNPRP	-0.171
RRIRRRPPRLPRPRPRPADFPRP	0.115
RRIRGRPPRLPRPRPRPSLWPRP	0.611
RRIRKRPPRLPRPRPRPFNEPRP	0.0442
RRIRNRPPRLPRPRPRPHRIPRP	-0.0314
RRIRTRPPRLPRPRPRPLIQPRP	-0.197
RRIRYRPPRLPRPRPRPHKDPRP	-0.428
RRIRCRPPRLPRPRPRPSITPRP	-0.641
RRIRRRPPRLPRPRPRPSMQPRP	0.404
RRIRRRPPRLPRPRPRPWESPRP	0.0904
RRIRDRPPRLPRPRPRPQIYPRP	-0.114
RRIRKRPPRLPRPRPRPWMRPRP	0.373
RRIRRRPPRLPRPRPRPVHYPRP	0.0593
RRIRMRPPRLPRPRPRPYTCPRP	8.02e-05
RRIRTRPPRLPRPRPRPHKHPRP	-0.417
RRIRHRPPRLPRPRPRPANKPRP	-0.291
RRIRRRPPRLPRPRPRPQAKPRP	0.418
RRIRWRPPRLPRPRPRPKIFPRP	-0.249

Sequence	shrunken log2 fold change
RRIRIRPPRLPRPRPRPGQIPRP	-0.0559
RRIRCRPPRLPRPRPRPCMDPRP	-0.09
RRIRKRPPRLPRPRPRPCFAPRP	0.358
RRIRERPPRLPRPRPRPQYEPRP	-0.624
RRIRHRPPRLPRPRPRPNISPRP	-0.319
RRIRTRPPRLPRPRPRPCMCPRP	-0.222
RRIRPRPPRLPRPRPRPDTLPRP	-0.284
RRIRWRPPRLPRPRPRPPYLPRP	-0.184
RRIRWRPPRLPRPRPRPVVKPRP	-0.322
RRIRERPPRLPRPRPRPSQIPRP	0.012
RRIRSRPPRLPRPRPRPLEPPRP	-0.132
RRIRPRPPRLPRPRPRPLEGPRP	0.179
RRIRERPPRLPRPRPRPQRKPRP	0.0503
RRIRDRPPRLPRPRPRPHHVPRP	-0.145
RRIRHRPPRLPRPRPRPICAPRP	-0.0362
RRIRVRPPRLPRPRPRPIIFPRP	-0.286
RRIRNRPPRLPRPRPRPIMKPRP	-0.059
RRIRTRPPRLPRPRPRPDIHPRP	-0.357
RRIRQRPPRLPRPRPRPDAVPRP	-0.0012
RRIRCRPPRLPRPRPRPICKPRP	0.0601
RRIRRRPPRLPRPRPRPNQKPRP	-0.128
RRIRCRPPRLPRPRPRPELLPRP	-0.0954
RRIRWRPPRLPRPRPRPLVEPRP	0.2
RRIRQRPPRLPRPRPRPVFIPRP	-0.288
RRIRYRPPRLPRPRPRPKIRPRP	0.0107

Sequence	shrunken log2 fold change
RRIRWRPPRLPRPRPRPHLLPRP	-0.66
RRIRNRPPRLPRPRPRPDCKPRP	-0.0698
RRIRFRPPRLPRPRPRPNSCPRP	-0.895
RRIRRRPPRLPRPRPRPCECPRP	0.076
RRIRERPPRLPRPRPRPLMAPRP	-0.169
RRIRVRPPRLPRPRPRPGPKPRP	0.254
RRIRPRPPRLPRPRPRPFDLPRP	-0.736
RRIRTRPPRLPRPRPRPAPDPRP	0.15
RRIRQRPPRLPRPRPRPCNLPRP	0.0555
RRIRVRPPRLPRPRPRPTEHPRP	-0.0827
RRIRFRPPRLPRPRPRPFDMPRP	-0.294
RRIRLRPPRLPRPRPRPYAGPRP	0.0235
RRIRQRPPRLPRPRPRPGAGPRP	0.451
RRIRIRPPRLPRPRPRPRFEPRP	0.131
RRIRKRPPRLPRPRPRPRAFPRP	0.326
RRIRVRPPRLPRPRPRPYRLPRP	0.0399
RRIRIRPPRLPRPRPRPRVSPRP	0.0983
RRIRHRPPRLPRPRPRPQSFPRP	0.0133
RRIRQRPPRLPRPRPRPQGWPRP	-0.151
RRIRIRPPRLPRPRPRPYGEPRP	-0.148
RRIRFRPPRLPRPRPRPYDIPRP	-0.0365
RRIRSRPPRLPRPRPRPLDQPRP	-0.0226
RRIRERPPRLPRPRPRPSSWPRP	-0.0518
RRIRTRPPRLPRPRPRPPEEPRP	-0.00968
RRIRHRPPRLPRPRPRPNFNPRP	-0.509

Sequence	shrunken log2 fold change
RRIRQRPPRLPRPRPRPNYGPRP	-0.299
RRIRKRPPRLPRPRPRPVQKPRP	0.242
RRIRARPPRLPRPRPRPFTMPRP	-0.378
RRIRNRPPRLPRPRPRPQCEPRP	0.0399
RRIRFRPPRLPRPRPRPEYNPRP	-0.113
RRIRFRPPRLPRPRPRPEGRPRP	-0.145
RRIRRRPPRLPRPRPRPHAIPRP	-0.042
RRIRRRPPRLPRPRPRPMNIPRP	-0.267
RRIRKRPPRLPRPRPRPLWYPRP	-0.511
RRIRYRPPRLPRPRPRPLDCPRP	-0.068
RRIRKRPPRLPRPRPRPFILPRP	-0.0304
RRIRARPPRLPRPRPRPNILPRP	-0.00643
RRIRQRPPRLPRPRPRPMSCPRP	0.029
RRIRGRPPRLPRPRPRPQRIPRP	0.178
RRIRARPPRLPRPRPRPLEWPRP	-0.0062
RRIRKRPPRLPRPRPRPFYEPRP	0.0368
RRIRIRPPRLPRPRPRPAKEPRP	-0.374
RRIRYRPPRLPRPRPRPLRTPRP	-0.151
RRIRRRPPRLPRPRPRPKMMPRP	0.296
RRIRERPPRLPRPRPRPDNTPRP	-0.489
RRIRSRPPRLPRPRPRPNCCPRP	-0.105
RRIRFRPPRLPRPRPRPMTKPRP	0.0716
RRIRMRPPRLPRPRPRPTRIPRP	0.447
RRIRMRPPRLPRPRPRPKMTPRP	2.7
RRIRHRPPRLPRPRPRPNKPPRP	-0.0637

Sequence	shrunken log2 fold change
RRIRLRPPRLPRPRPRPMPPPRP	0.15
RRIRHRPPRLPRPRPRPTFNPRP	-0.612
RRIRERPPRLPRPRPRPNCHPRP	-0.336
RRIRGRPPRLPRPRPRPKLKPRP	0.862
RRIRDRPPRLPRPRPRPGPYPRP	-0.079
RRIRWRPPRLPRPRPRPHKVPRP	-0.431
RRIRPRPPRLPRPRPRPCKMPRP	-0.223
RRIRARPPRLPRPRPRPDPVPRP	0.688
RRIRARPPRLPRPRPRPWYGPRP	-0.634
RRIRRRPPRLPRPRPRPMGAPRP	0.658
RRIRWRPPRLPRPRPRPNVSPRP	-0.0556
RRIRQRPPRLPRPRPRPVSPPRP	-0.0264
RRIRNRPPRLPRPRPRPRVFPRP	-0.036
RRIRVRPPRLPRPRPRPCPMPRP	-0.0643
RRIRERPPRLPRPRPRPCAKPRP	0.00616
RRIRNRPPRLPRPRPRPLFEPRP	0.205
RRIRLRPPRLPRPRPRPNHWPRP	0.0994
RRIRVRPPRLPRPRPRPGRKPRP	-0.0493
RRIRFRPPRLPRPRPRPSEFPRP	-0.301
RRIRDRPPRLPRPRPRPQLAPRP	0.505
RRIRSRPPRLPRPRPRPWVFPRP	0.0645
RRIRDRPPRLPRPRPRPRRKPRP	0.233
RRIRVRPPRLPRPRPRPYWTPRP	-0.366
RRIRDRPPRLPRPRPRPQNVPRP	-0.01
RRIRSRPPRLPRPRPRPYDNPRP	-0.0962

Reference: the supplement of paper PMC9112550, “Optimization of the antimicrobial peptide Bac7 by deep mutational scanning” (BMC Biology, 2022)
